First the molecules themselves.
B1: TPR t1 (parent)
chain: GACCAAUCUGCCCUCAGAGCUCGAGAACAUCUUCGGAUGCAGAGGAGGCAGGCUUCGGUGGCGCGAUAGCGCCAACGUCCUCAACCUCCAAUGCAUCCCACCACAUGAUGAUGCCUGAAGAGCCUUGGUUUUUUG

In the data set the parent is B1. Briefly: polymerase ribozyme fitness, log enrichment relative to wild type (log ratio); higher = more active; in vitro selection for triplet polymerase activity. A digest of the protocol:
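Mutant libraries of each subunit of a heterodimeric triplet polymerase ribozyme were built by PCR and transcribed. Each library went through one round of in vitro selection in triplicate: annealing with biotinylated primer, partner subunit and triplets, frozen incubation at −7 °C, gel excision of extended constructs, streptavidin-bead capture and RT-PCR. Input and output libraries were Illumina-sequenced; only genotypes with ≥10 input reads and ≥1 read per output were kept. Fitness is log2(genotype enrichment/wild-type enrichment), using inverse-variance-weighted replicate averages.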
C11G G120C G135C: the “polymerase ribozyme fitness (log ratio)” value was found to be 2.47.
Next, C11U C12U C34A G63U U78C C104G G117C: -6.71; C11G C49A C64U: -0.24.
With C11G G93U C123U the figure was 0.981; with C11U A43C G69C G77U U112G U134G, -5.15.
Regarding C11U C70U C102U, the “polymerase ribozyme fitness (log ratio)” value was -3.34.
Next, C11U C79G U92G: -6.09.
With C11G C49A U81G G93U C101G U109A the figure was -5.65; with C11U C20A G57A C62U U87A, -4.19.
With C11G G71C the figure was -0.604.
Regarding C11G G71A, the “polymerase ribozyme fitness (log ratio)” value was -0.503.
Next, C11G C31U G52A U96G G120C: -5.5; C11U A74G C89G: -3.01.
As to C11G C104A, the “polymerase ribozyme fitness (log ratio)” value was -1.42.
For C11U A18G, the “polymerase ribozyme fitness (log ratio)” value is -3.57.
As for C11U C53G A91U, the “polymerase ribozyme fitness (log ratio)” value was -1.86.
With C11G C31U U55C A90G the figure was -4.94.
With C11G U21G C53A U55C A68G the figure was -5; with C11G C94U, -0.128; with C11U C53G C64U C101U U125A, -1.43.
Next, C11G G17A C124U: -3.84; C11U A46C: -1.05.
With C11G G36C G77A, the “polymerase ribozyme fitness (log ratio)” value is -0.0394.
Next, C11U A16U G39C G42A C56U: -3.73.
Turning to C11G C34A G61U C62U C80G C86U G120A, the “polymerase ribozyme fitness (log ratio)” value was -6.66.
Regarding C11G G35U C82A A105C C123A C124A, the “polymerase ribozyme fitness (log ratio)” value is -5.28.
With C11U C72A the figure was 0.246; with C11G C64U C72A C89U, -1.01.
With C11G C70G G77U A103C A121C U132A the figure was -5.85; with C11U C73G C102A A103U, -5.8; with C11U C62U, -0.515.
Turning to C11G G39U C49G C64U G117C, the “polymerase ribozyme fitness (log ratio)” value is -4.26.
On to C11U A46G G69U, for which the “polymerase ribozyme fitness (log ratio)” value is -0.0646.
Next, C11U C53A G63C A103C G113U: -6.41; C11G C101U: 0.142; C11G G42U U59A G60U: -1.24.
In the case of C11U C64U, the “polymerase ribozyme fitness (log ratio)” value was -0.331.
Regarding C11U C49G U92A C123G, the “polymerase ribozyme fitness (log ratio)” value is -3.91.
Consider C11G G61A A90U U109G G117A, for which the “polymerase ribozyme fitness (log ratio)” value is -6.12.
Next, C11U A18U C53U C72G C82G U96G C98U C104U U109C: -7.77.
As for C11U C22G C40U G69A, the “polymerase ribozyme fitness (log ratio)” value was -5.5.
For C11G C56U, the “polymerase ribozyme fitness (log ratio)” value worked out at 0.107.
With C11U C89A U112G the figure was -1.71.
On to C11U A46C G120A U133G, for which the “polymerase ribozyme fitness (log ratio)” value was -0.579.
With C11G G61U U87G the figure was 0.243; with C11G U32C, -0.0143.
Next, C11G C82U G117A: -0.654; C11G G36U G63A C98G: -6.37; C11G C72G: -0.147.
With C11U A100C G110A the figure was -2.68; with C11G G44C C72G C88U C101U, -0.537.
Take C11G C114A: the “polymerase ribozyme fitness (log ratio)” value was -1.06.
For C11G C49A G61A, the “polymerase ribozyme fitness (log ratio)” value came to 1.07.
Next, C11U C13G C56U G93C C114U A119G: -3.78; C11G C22G G36A A83C: -3.71.
With C11U A18G C72A the figure was -3.7; with C11U A43U C70U C98U G122U, -4.47.
Consider C11U C70G, for which the “polymerase ribozyme fitness (log ratio)” value is -2.97.
For the variant C11U C70U, the “polymerase ribozyme fitness (log ratio)” value was -0.753.
Next, C11G G57U U67G G120A: -6.74.
On to C11G C15U G45A C73A A83U, for which the “polymerase ribozyme fitness (log ratio)” value is -1.42.
Next, C11G G36A C73U: -0.782.
For C11G G61C, the “polymerase ribozyme fitness (log ratio)” value was -1.35.
As to C11G G61A, the “polymerase ribozyme fitness (log ratio)” value worked out at 1.
With C11G G65C the figure was -5.03; with C11G G17A, -3.46; with C11U C89G, -1.89.
Regarding C11G C73U U96A, the “polymerase ribozyme fitness (log ratio)” value was -0.543.
Turning to C11G G35A A84U, the “polymerase ribozyme fitness (log ratio)” value was -4.58.
With C11G C31A, the “polymerase ribozyme fitness (log ratio)” value is -4.96.
With C11U A37C G52C C76U the figure was -2.87.
C11U A29U A91U G107C C114U: the “polymerase ribozyme fitness (log ratio)” value is -5.83.
For the variant C11U A16U A26U C62A G120C, the “polymerase ribozyme fitness (log ratio)” value is -5.1.
Next, C11G U38G C79U: -1.02; C11U A18U C34U C64G C79U C123A: -5.92.
With C11U C49U G63A U109A G117C A119U the figure was -7.12.
Next, C11G C73G C101U U112C G117C: -3.04; C11G C22G G36A C70U A83C: -5.41; C11U A41U G69U A74G G117A U125A U130A U131A: -6.86.
For the variant C11U C12G, the “polymerase ribozyme fitness (log ratio)” value was -0.553.
For C11U C12U, the “polymerase ribozyme fitness (log ratio)” value is -0.628.
With C11G C22A A26C C102A the figure was -5.19; with C11G C15A U106A G117U G127U, -0.216.
Next, C11U C15G G47A C86A A90G G117U G120C: -0.496; C11U C22U C70U C99U U112A: -6.17.
With C11G C13U A84U A91U G93C the figure was -2.67.
Turning to C11G C15U G45C, the “polymerase ribozyme fitness (log ratio)” value is -1.34.
C11G C53U C82U: the “polymerase ribozyme fitness (log ratio)” value was 0.05.
As to C11U C94A C102A, the “polymerase ribozyme fitness (log ratio)” value was -3.51.
With C11G U78G C98U the figure was -0.594; with C11G C64U A74U C123U, 0.798.
As to C11G G63C U96A, the “polymerase ribozyme fitness (log ratio)” value was -0.969.
For the variant C11G U87G C123G, the “polymerase ribozyme fitness (log ratio)” value is 1.19.
On to C11U C40G C64U, for which the “polymerase ribozyme fitness (log ratio)” value was -1.72.
As for C11U C56U, the “polymerase ribozyme fitness (log ratio)” value was -0.0444.
On to C11G U21A A24U G60U C94G G120A, for which the “polymerase ribozyme fitness (log ratio)” value is -7.06.
Next, C11G C124G: 1.42.
For C11U C73G C124U, the “polymerase ribozyme fitness (log ratio)” value amounted to 0.969.
Next, C11G C76A U112A G117C G128C U134G: -5.47; C11U C22G C40U: -3.22.
On to C11U A46C G51U C86G C102A, for which the “polymerase ribozyme fitness (log ratio)” value is -8.49.
Next, C11G G77C: -0.624; C11G G42A C72A C88U: -1.46.
With C11G G113A A119U G120A the figure was -0.282.
Regarding C11G C73U C114U, the “polymerase ribozyme fitness (log ratio)” value is -1.42.
For C11U C76U, the “polymerase ribozyme fitness (log ratio)” value was -0.741.
On to C11U C76A, for which the “polymerase ribozyme fitness (log ratio)” value was -0.763.
With C11G C64A the figure was -5.88; with C11U C104A, -2.66.
With C11G G44C G77A C80A U130A U131A, the “polymerase ribozyme fitness (log ratio)” value was -4.18.
Next, C11G G48A: -0.377; C11G G48U: -1.46; C11G C15U C56U A83U: -1.12.
As to C11U C101G, the “polymerase ribozyme fitness (log ratio)” value was -2.02.
With C11U C101A the figure was -1.8; with C11U C20G A27G C56U, -5.19.
With C11G C40A C72U C101U C104U the figure was -1.72; with C11U C88U C104A A121G, 0.139.
With C11G C15A G19U G69C C98A C114U the figure was -6.19; with C11G G63U, -0.927.
On to C11U C28U G120A C124G, for which the “polymerase ribozyme fitness (log ratio)” value was determined as 0.0586.
With C11G G25C G39A C56A U67G C72A C82A A111C the figure was -6.95; with C11U C15A C40U C73A C123G, -0.889.
Turning to C11G C34G C49U U106C C115G C124G, the “polymerase ribozyme fitness (log ratio)” value was -6.56.
In the case of C11U C13U, the “polymerase ribozyme fitness (log ratio)” value was -1.63.
With C11G U14A A46U G61A C62U, the “polymerase ribozyme fitness (log ratio)” value was -2.33.
With C11U C73A the figure was -0.524; with C11G G117C, -1.94.
Turning to C11U C13A U78A, the “polymerase ribozyme fitness (log ratio)” value was -0.472.
Next, C11G G39A C49G C53U G69A G120C: -2.46; C11G G17A G60A C79G A90U C99A: -7.47; C11G U32C G35C C97U G120C: -2.23.
Next, C11G C20U C22A G39C: -5.35; C11G G48C G110A: -1.89.
Next, C11G C20U: -0.656; C11U A27G C76G C80A C85A U112G: -0.749.
As to C11G C64U C114G C115A C123G C124A, the “polymerase ribozyme fitness (log ratio)” value was -4.26.
Next, C11U C13A C89U: -2.3; C11G U14A A46U: -1.11; C11G U112A: 1.42.
Next, C11G C98A: -3.33; C11G G35C G45U G71A U81A U112A U125A: -6.05; C11G G69U: 0.709.
With C11U C85U the figure was -1.93.
Regarding C11U A50U G61C C76A A111C, the “polymerase ribozyme fitness (log ratio)” value was -6.51.
With C11U C86U the figure was -0.821; with C11G C79U, -0.0995; with C11G G63C A105U C123G, -2.11.
Consider C11U A29U C53U C72A C123A, for which the “polymerase ribozyme fitness (log ratio)” value was -0.568.
Regarding C11G C73G C85A A111G, the “polymerase ribozyme fitness (log ratio)” value was -1.47.
Consider C11U C15U G45U C64U U78A C80U C82U A111U, for which the “polymerase ribozyme fitness (log ratio)” value is -8.07.
With C11U C13U U32C the figure was -1.05; with C11G C15A, -0.327; with C11G G57A C73A C123G, 0.666.
In the case of C11G G60A G120A G135A, the “polymerase ribozyme fitness (log ratio)” value was found to be 1.87.
Next, C11U C15A G45U C72A U129A: -5.41.
With C11G G39A C53G the figure was -0.759.
With C11G C70A A95C U112A U132C the figure was -1.46; with C11G G42A A121C, 0.0348; with C11G G61U U96C, -0.274.
For C11G C15U C20U C70G, the “polymerase ribozyme fitness (log ratio)” value is -3.71.
As to C11G G36U C56G C82U, the “polymerase ribozyme fitness (log ratio)” value was -0.948.
In the case of C11G C99U, the “polymerase ribozyme fitness (log ratio)” value is -2.71.
With C11G C49U C72G, the “polymerase ribozyme fitness (log ratio)” value was -0.598.
Turning to C11G G107C U112C C123U G128C, the “polymerase ribozyme fitness (log ratio)” value was -5.88.
With C11U A41C C49G U59A G61U A91C U130G, the “polymerase ribozyme fitness (log ratio)” value was -3.24.
On to C11G C62A U106A, for which the “polymerase ribozyme fitness (log ratio)” value was -0.272.

The values are drawn from the RNAGym collection of RNA variant scans (doi:10.1073/pnas.2313332121).
